{"source": "paper PMC6087734", "about": "“Loss of S100A1 expression leads to Ca^2+ release potentiation in mutant mice with disrupted CaM and S100A1 binding to CaMBD2 of RyR1” (Physiological Reports, 2018)", "origin": "cited, not measured here", "molecules": {"B1": {"name": "S100A1: 21 kDa dimeric molecule characterized by its EF‐hand Ca^2+‐binding motifs (protein, UniProt P23297 1-94, looked up)", "Protein S100-A1": "MGSELETAMETLINVFHAHSGKEGDKYKLSKKELKELLQTELSGFLDAQKDVDAVDKVMKELDENGDGEVDFQEYVVLVAALTVACNNFFWENS"}}, "tested_on": "RyR1", "conditions": "in vitro FRET; ref Rebbeck et al. 2016; cited from earlier work", "text": "In fast‐type skeletal muscle the intracellular concentration of S100A1 was reported to be ~3 μmol/L (Haimoto and Kato 1987; Zimmer et al. 1991), with total intracellular concentration of CaM being about 5 μmol/L (Robertson et al. 1981).", "data": [{"molecule": "B1", "values": [{"measurement": "S100A1 concentration required for RyR1 modulation, in words", "value": "high unphysiological (micromolar) concentration"}]}]}
